Key:
[1] = biological target: T1, intact K8/intact K18 heterotypic complex (recombinant GST fusion proteins) (human, UniProt P05787 2-483; P05783 2-430); test: SPR (BIAcore), complex immobilized, COU-1 injected
T1 construct: Heterotypic complex of two GST fusion proteins; also called intact K8/K18 complex; not shown: glutathione S-transferase (GST) fusion partner, modified pGEX-2T vector
T1 chain 1: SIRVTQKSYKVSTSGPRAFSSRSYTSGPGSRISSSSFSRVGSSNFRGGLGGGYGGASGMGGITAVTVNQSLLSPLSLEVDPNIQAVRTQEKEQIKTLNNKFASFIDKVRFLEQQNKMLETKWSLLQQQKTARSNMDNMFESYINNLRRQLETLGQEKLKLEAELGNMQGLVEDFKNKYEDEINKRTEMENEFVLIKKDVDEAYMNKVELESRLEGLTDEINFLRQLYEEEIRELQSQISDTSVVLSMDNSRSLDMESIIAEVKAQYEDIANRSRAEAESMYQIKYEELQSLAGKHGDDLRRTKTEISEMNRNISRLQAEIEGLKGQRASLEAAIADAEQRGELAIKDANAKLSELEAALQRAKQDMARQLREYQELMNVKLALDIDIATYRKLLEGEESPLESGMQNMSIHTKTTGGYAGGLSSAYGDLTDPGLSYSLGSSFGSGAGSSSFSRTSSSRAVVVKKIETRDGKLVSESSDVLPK
T1 chain 2: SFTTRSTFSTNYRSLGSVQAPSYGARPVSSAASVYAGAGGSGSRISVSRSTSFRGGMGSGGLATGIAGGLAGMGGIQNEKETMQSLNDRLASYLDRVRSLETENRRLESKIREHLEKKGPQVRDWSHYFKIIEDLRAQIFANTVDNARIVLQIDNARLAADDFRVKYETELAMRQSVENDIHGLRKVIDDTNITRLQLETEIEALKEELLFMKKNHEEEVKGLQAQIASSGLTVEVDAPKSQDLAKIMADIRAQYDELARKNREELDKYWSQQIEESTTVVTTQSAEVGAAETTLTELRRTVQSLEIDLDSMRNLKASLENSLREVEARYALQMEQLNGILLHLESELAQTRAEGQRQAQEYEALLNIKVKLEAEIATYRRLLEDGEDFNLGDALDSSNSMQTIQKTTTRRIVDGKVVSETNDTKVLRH

[2] = biological target: T2, K8(1-65)/intact K18 heterotypic complex (human, UniProt P05787 2-66; P05783 2-430); test: summary map of the heterotypic association assay: GST deletion protein incubated with the complementary keratin, then stained with COU-1
T2 construct: Heterotypic complex of two GST fusion proteins; not shown: glutathione S-transferase (GST) fusion partner, modified pGEX-2T vector
T2 sequence 1: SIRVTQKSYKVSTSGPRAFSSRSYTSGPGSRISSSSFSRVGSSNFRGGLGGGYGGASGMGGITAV
T2 sequence 2: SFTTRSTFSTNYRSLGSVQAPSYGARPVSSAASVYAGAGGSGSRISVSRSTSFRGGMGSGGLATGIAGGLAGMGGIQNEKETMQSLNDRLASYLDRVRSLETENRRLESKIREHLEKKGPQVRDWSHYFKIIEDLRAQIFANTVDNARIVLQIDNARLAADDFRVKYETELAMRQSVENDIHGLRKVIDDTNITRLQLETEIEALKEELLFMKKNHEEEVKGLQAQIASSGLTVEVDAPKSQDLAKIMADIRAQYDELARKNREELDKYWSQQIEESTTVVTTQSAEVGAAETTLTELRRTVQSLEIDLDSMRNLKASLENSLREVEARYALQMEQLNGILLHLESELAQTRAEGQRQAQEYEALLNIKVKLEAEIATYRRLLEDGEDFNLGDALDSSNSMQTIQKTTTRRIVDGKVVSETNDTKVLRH

[3] = biological target: T3, intact K8/K18(1-72) heterotypic complex (human, UniProt P05787 2-483; P05783 2-73); test: as above
T3 construct: Heterotypic complex of two GST fusion proteins; also called K18(1-72)/intact K8; not shown: glutathione S-transferase (GST) fusion partner, modified pGEX-2T vector
T3 chain 1: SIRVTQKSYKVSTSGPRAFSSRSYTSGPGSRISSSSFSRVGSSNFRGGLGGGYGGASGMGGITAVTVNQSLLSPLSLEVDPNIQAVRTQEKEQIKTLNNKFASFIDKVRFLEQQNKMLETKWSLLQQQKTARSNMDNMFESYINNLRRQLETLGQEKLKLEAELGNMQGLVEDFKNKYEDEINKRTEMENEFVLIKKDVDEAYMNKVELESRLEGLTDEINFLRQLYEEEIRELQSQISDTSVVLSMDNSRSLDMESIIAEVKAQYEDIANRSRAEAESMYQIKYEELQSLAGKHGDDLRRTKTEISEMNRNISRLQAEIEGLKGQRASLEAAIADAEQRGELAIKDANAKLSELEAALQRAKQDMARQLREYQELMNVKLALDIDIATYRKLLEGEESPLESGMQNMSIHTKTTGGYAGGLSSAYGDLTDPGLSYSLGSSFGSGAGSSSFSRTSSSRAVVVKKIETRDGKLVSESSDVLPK
T3 chain 2: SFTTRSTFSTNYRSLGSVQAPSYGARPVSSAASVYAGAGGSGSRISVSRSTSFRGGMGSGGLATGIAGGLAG

[4] = biological target: T4, K8(130-483)/intact K18 heterotypic complex; test: as above
T4 construct: one member of the group m25; not shown: GST fusion partner (modified pGEX-2T) on the keratin proteins
T4 K8 fragment: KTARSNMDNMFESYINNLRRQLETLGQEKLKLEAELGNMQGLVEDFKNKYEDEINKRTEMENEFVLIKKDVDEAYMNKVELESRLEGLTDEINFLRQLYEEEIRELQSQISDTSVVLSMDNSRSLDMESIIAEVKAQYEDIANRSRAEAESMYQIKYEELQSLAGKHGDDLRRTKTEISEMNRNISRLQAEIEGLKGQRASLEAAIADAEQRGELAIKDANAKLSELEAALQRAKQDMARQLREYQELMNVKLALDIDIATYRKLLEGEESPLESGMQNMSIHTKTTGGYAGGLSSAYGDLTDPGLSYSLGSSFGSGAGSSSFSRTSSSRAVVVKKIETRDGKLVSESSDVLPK
T4 K18 intact: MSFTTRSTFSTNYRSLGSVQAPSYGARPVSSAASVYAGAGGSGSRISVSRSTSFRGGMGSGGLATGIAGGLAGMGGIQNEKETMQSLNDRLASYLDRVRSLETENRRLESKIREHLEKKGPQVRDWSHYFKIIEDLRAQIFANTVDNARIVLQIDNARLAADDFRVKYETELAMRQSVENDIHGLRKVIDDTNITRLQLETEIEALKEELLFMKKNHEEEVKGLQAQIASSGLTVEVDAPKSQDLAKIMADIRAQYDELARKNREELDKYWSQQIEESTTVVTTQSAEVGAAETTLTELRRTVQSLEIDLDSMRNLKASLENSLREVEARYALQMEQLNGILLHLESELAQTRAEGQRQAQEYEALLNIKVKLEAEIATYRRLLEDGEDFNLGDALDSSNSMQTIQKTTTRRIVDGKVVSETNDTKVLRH

[5] = biological target: T5, K8(1-85)/K18(1-187) heterotypic complex (human, UniProt P05787 2-86; P05783 2-188); test: heterotypic association assay: blotted K8 proteins incubated with purified K18(1-187), then stained with COU-1
T5 construct: Heterotypic complex of two GST fusion proteins; not shown: glutathione S-transferase (GST) fusion partner, modified pGEX-2T vector
T5 chain 1: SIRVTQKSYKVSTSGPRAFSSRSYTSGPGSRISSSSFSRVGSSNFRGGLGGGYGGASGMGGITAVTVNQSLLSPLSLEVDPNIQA
T5 chain 2: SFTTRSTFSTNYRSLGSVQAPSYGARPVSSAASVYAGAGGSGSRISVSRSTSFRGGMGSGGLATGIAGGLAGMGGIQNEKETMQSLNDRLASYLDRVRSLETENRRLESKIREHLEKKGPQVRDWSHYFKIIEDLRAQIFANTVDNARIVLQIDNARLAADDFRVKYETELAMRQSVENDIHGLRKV

B1: human monoclonal IgM antibody COU-1 (antibody, V domains shown)
VH: GAEVKKPGASVKVSCKASDYTFSSYYMHWVRQAPGQGLEWMGIINPSGGSTSYAQKFQGRVTMTRDTSTNTVYMELSSLRSEDTAVYYCARDQVVVAATLSNYGMDVWGQGTTVTVSS
VL: ELTQSPGTLSLSPGERATLSCRASQSVSSSYLAWYQQKPGQAPRLLIYDASNRATGIPARFSGSGSGTDFTLTISSLEPEDFAVYYCQQGTNWGIAFGQGTRLDIKR
notes: Human IgM with kappa light chain, secreted by hybridoma B9165 (ECACC 87040201), purified from culture supernatant; also called HMab COU-1; HuMab COU-1
For B1, which Ka [1] is on record?
Its Ka is 1.8e+07 M⁻¹.

And the Kd [1]?
The Kd was 55 nM.

And the “fold lower binding than to the truncated complexes” value [1]?
Its value is ~100 fold.

What about the koff [1] of the same binder?
Its koff is 0.0005 s⁻¹.

And the kon [1]?
The kon was 9100 M⁻¹ s⁻¹.

Does B1 bind [2]?
Result: no binding (tested: 5 µg/ml COU-1 (P-0285))

Does B1 bind [3]?
Result: no binding (tested: 5 µg/ml COU-1 (P-0285))

Does B1 bind [4]?
Result: no binding (tested: 5 µg/ml COU-1 (P-0285))

Does B1 bind [5]?
Result: no binding (tested: 5 µg/ml COU-1 (P-0285))

From patent US20050048070A1 (published 2005)
